# ± gives the standard deviation.
# Assay: protein stability index of a GFP-peptide fusion (GPS, HEK-293T) (PSI 1-6); higher = more stable
# Details: c terminus: a fixed tail appended
# 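Note: 24-mer peptide tiles fused after GFP, lentivirally expressed, FACS-sorted into six equal bins by GFP/DsRed ratio, decoded by Illumina sequencing, PSI is the read-weighted mean bin number.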
sequence,measurement,setting,value
TRGRGGLLRDHIPRGKEELESLGG [MOG],protein stability index,treatment: DMSO,4.72 ± 0.081
same,protein stability index,"treatment: MLN4924 1 uM, 8 h",4.95 ± 0.19
AHLAAEVEGKCLQSGFEMLKDVKS [TRIM39],protein stability index,treatment: DMSO,4.17 ± 0.22
same,protein stability index,"treatment: MLN4924 1 uM, 8 h",4.62 ± 0.28
MLGLALGGLVVSAASLAGCLGALC [TSPAN10],protein stability index,treatment: DMSO,3.15 ± 0.55
same,protein stability index,"treatment: MLN4924 1 uM, 8 h",3.04 ± 0.37
GPIQLWQFLLELLSDKSCQSFISW [ETS2],protein stability index,treatment: DMSO,2.62 ± 0.5
same,protein stability index,"treatment: MLN4924 1 uM, 8 h",2.73 ± 0.6
GGDYGLVTAGCGFGKDFRKGLLKK [PPTC7],protein stability index,treatment: DMSO,3.22 ± 0.36
same,protein stability index,"treatment: MLN4924 1 uM, 8 h",3.6 ± 0.48
PVACGSVLSEGSPLTEQEESSPSH [SRPK2],protein stability index,treatment: DMSO,5.52 ± 0.17
same,protein stability index,"treatment: MLN4924 1 uM, 8 h",5.51 ± 0.17
DLFKSFPGPMDWVPRYTGVAPQDQ [ADAMTS4],protein stability index,treatment: DMSO,3.19 ± 0.29
same,protein stability index,"treatment: MLN4924 1 uM, 8 h",3.21 ± 0.2
FLTAPLLEFLLALYFLFADAMQLN [CMTM3],protein stability index,treatment: DMSO,2.94 ± 0.29
same,protein stability index,"treatment: MLN4924 1 uM, 8 h",3.17 ± 0.3
TAHADEFDCPSELQHTQELFPQWH [STEAP1],protein stability index,treatment: DMSO,3.79 ± 0.15
same,protein stability index,"treatment: MLN4924 1 uM, 8 h",3.84 ± 0.07
GVCYSESQSSASQPRLSYAEMAED [CLCN6],protein stability index,treatment: DMSO,5.11 ± 0.23
same,protein stability index,"treatment: MLN4924 1 uM, 8 h",5.28 ± 0.31
MHVACQHGQENIVRILLRRGVDVS [RIPK4],protein stability index,treatment: DMSO,2.29 ± 0.32
same,protein stability index,"treatment: MLN4924 1 uM, 8 h",2.24 ± 0.45
FWLQNSSPSSDRVSAIIWEGNECK [PHTF1],protein stability index,treatment: DMSO,2.41 ± 0.32
same,protein stability index,"treatment: MLN4924 1 uM, 8 h",3.07 ± 0.4
VISLLNEPNTFSPANVDASVMYRK [CDC34],protein stability index,treatment: DMSO,2.92 ± 0.25
same,protein stability index,"treatment: MLN4924 1 uM, 8 h",3.07 ± 0.21
INNGDFEAYTKICDPGLTAFEPEA [CAMK2D],protein stability index,treatment: DMSO,4.08 ± 0.41
same,protein stability index,"treatment: MLN4924 1 uM, 8 h",4.36 ± 0.18
IEGAPEVTMSSLFKHILRTEGAFG [SLC25A25],protein stability index,treatment: DMSO,2.31 ± 0.39
same,protein stability index,"treatment: MLN4924 1 uM, 8 h",2.63 ± 0.13
AKDEDQWTALHFAAQNGDESSTRL [RIPK4],protein stability index,treatment: DMSO,4.54 ± 0.95
same,protein stability index,"treatment: MLN4924 1 uM, 8 h",5.086 ± 0.023
FQDAIFPDTQENRRMFSSLFQFSN [CCDC3],protein stability index,treatment: DMSO,2.38 ± 0.43
same,protein stability index,"treatment: MLN4924 1 uM, 8 h",2.58 ± 0.37
IDGVATTRYSVAGLSPYSDYEFRV [PTPRD],protein stability index,treatment: DMSO,2.02 ± 0.24
same,protein stability index,"treatment: MLN4924 1 uM, 8 h",2.02 ± 0.29
KDLDGMDADILGLKKSNSAPSKKA [FBF1],protein stability index,treatment: DMSO,5.03 ± 0.22
same,protein stability index,"treatment: MLN4924 1 uM, 8 h",5 ± 0.18
VSNTPLRTVDGSPMMKAAMYSVEI [PALM],protein stability index,treatment: DMSO,2.27 ± 0.4
same,protein stability index,"treatment: MLN4924 1 uM, 8 h",2.42 ± 0.17
NTLVCNGLQNCVYPWDENHCKEKR [NETO1],protein stability index,treatment: DMSO,4.21 ± 0.25
same,protein stability index,"treatment: MLN4924 1 uM, 8 h",4.26 ± 0.3
TCKASHITSSVFPSASLGKASSRK [FBXO34],protein stability index,treatment: DMSO,3.62 ± 0.28
same,protein stability index,"treatment: MLN4924 1 uM, 8 h",3.55 ± 0.2
NPFAKGFRENGRNCKRERDARVKR [TBX6],protein stability index,treatment: DMSO,4.1 ± 0.24
same,protein stability index,"treatment: MLN4924 1 uM, 8 h",4.09 ± 0.36
KNIFGTPEFVAPEIVNYEPLGLEA [DAPK3],protein stability index,treatment: DMSO,3.95 ± 0.23
same,protein stability index,"treatment: MLN4924 1 uM, 8 h",4.26 ± 0.51
LREMCALSFQEELLYWGIAEDHLD [KCNG1],protein stability index,treatment: DMSO,2.27 ± 0.27
same,protein stability index,"treatment: MLN4924 1 uM, 8 h",2.26 ± 0.22
TPPEEQQEAEEPKARVLRSKSLCH [CDC25B],protein stability index,treatment: DMSO,5.37 ± 0.26
same,protein stability index,"treatment: MLN4924 1 uM, 8 h",5.37 ± 0.24
AIPTKKSLPSPSSSGHQNRRFSSE [FBF1],protein stability index,treatment: DMSO,4.82 ± 0.27
same,protein stability index,"treatment: MLN4924 1 uM, 8 h",4.9 ± 0.15
GAGFGGGLGAGFGGGFAGGDGLLV [KRT16],protein stability index,treatment: DMSO,2.58 ± 0.82
same,protein stability index,"treatment: MLN4924 1 uM, 8 h",2.46 ± 0.92
SFVVLLYILDNETNFVVQVSVFIG [CLPTM1],protein stability index,treatment: DMSO,3.15 ± 0.41
same,protein stability index,"treatment: MLN4924 1 uM, 8 h",3.39 ± 0.56
DMWSIGVITYILLSGASPFLGETK [DAPK3],protein stability index,treatment: DMSO,3.15 ± 0.3
same,protein stability index,"treatment: MLN4924 1 uM, 8 h",2.97 ± 0.36
LQRVLEHRRRNQLIKKKKEELEAK [FAM107A],protein stability index,treatment: DMSO,3.49 ± 0.29
same,protein stability index,"treatment: MLN4924 1 uM, 8 h",3.81 ± 0.5
DHYQRVKREREKEDIALNKHRSRR [RHOBTB1],protein stability index,treatment: DMSO,4.23 ± 0.25
same,protein stability index,"treatment: MLN4924 1 uM, 8 h",4.38 ± 0.21
IMTVKEDQFSALGLDPCLLEDELD [SLC6A17],protein stability index,treatment: DMSO,4.45 ± 0.33
same,protein stability index,"treatment: MLN4924 1 uM, 8 h",4.46 ± 0.3
VVTRVVTGVYPRCLHASQWPVCAA [BRF1],protein stability index,treatment: DMSO,2.54 ± 0.51
same,protein stability index,"treatment: MLN4924 1 uM, 8 h",2.75 ± 0.23
LYYYMTQTEELKYSIDQEFLKEYF [NLN],protein stability index,treatment: DMSO,2.74 ± 0.85
same,protein stability index,"treatment: MLN4924 1 uM, 8 h",2.39 ± 0.62
DLRKHRRKLLSPVSREENREDKAT [PPFIA4],protein stability index,treatment: DMSO,4.52 ± 0.18
same,protein stability index,"treatment: MLN4924 1 uM, 8 h",4.84 ± 0.3
PSRAPPSTQEPQSPREGEELKPED [GNAS],protein stability index,treatment: DMSO,5.5 ± 0.33
same,protein stability index,"treatment: MLN4924 1 uM, 8 h",5.5 ± 0.32
EEAGSQENHPQESKGQPRSQEESE [CHGB],protein stability index,treatment: DMSO,5.57 ± 0.25
same,protein stability index,"treatment: MLN4924 1 uM, 8 h",5.64 ± 0.17
QHHEALSLFCYEDQEAVCLICAIS [TRIM39],protein stability index,treatment: DMSO,2.26 ± 0.23
same,protein stability index,"treatment: MLN4924 1 uM, 8 h",2.35 ± 0.18
KAQLLEQAQGQLRELLDRAMREAI [SOAT2],protein stability index,treatment: DMSO,2.29 ± 0.33
same,protein stability index,"treatment: MLN4924 1 uM, 8 h",2.37 ± 0.42
PMLETASKLLLSGTADGADLRTVD [ANKRD17],protein stability index,treatment: DMSO,4.68 ± 0.077
same,protein stability index,"treatment: MLN4924 1 uM, 8 h",4.67 ± 0.22
EEVPEGMEEAAVASVVLPARELQE [BCL2L13],protein stability index,treatment: DMSO,5.59 ± 0.2
same,protein stability index,"treatment: MLN4924 1 uM, 8 h",5.41 ± 0.26
KVEQAKKPSFQSGGRRRPPASSRN [RBMY1A1],protein stability index,treatment: DMSO,4.628 ± 0.025
same,protein stability index,"treatment: MLN4924 1 uM, 8 h",4.73 ± 0.084
VQELCKQLHAKIDAAEEEKYDMEV [TNNI2],protein stability index,treatment: DMSO,4.81 ± 0.28
same,protein stability index,"treatment: MLN4924 1 uM, 8 h",4.74 ± 0.1
FQARLSGNNLHNASIPEHLAYGSV [POMT2],protein stability index,treatment: DMSO,2.63 ± 0.21
same,protein stability index,"treatment: MLN4924 1 uM, 8 h",2.95 ± 0.29

# Reference: the supplement of paper PMC10567573
